B1: human Netrin-G1-his (purified Netrin-G1 protein with a C-terminus His tag) (receptor, UniProt Q9Y2I2-1 29-409, looked up, not shown: small tags and cut ends)
chain: HYDLCKTQIYTEEGKVWDYMACQPESTDMTKYLKVKLDPPDITCGDPPETFCAMGNPYMCNNECDASTPELAHPPELMFDFEGRHPSTFWQSATWKEYPKPLQVNITLSWSKTIELTDNIVITFESGRPDQMILEKSLDYGRTWQPYQYYATDCLDAFHMDPKSVKDLSQHTVLEIICTEEYSTGYTTNSKIIHFEIKDRFAFFAGPRLRNMASLYGQLDTTKKLRDFFTVTDLRIRLLRPAVGEIFVDELHLARYFYAISDIKVRGRCKCNLHATVCVYDNSKLTCECEHNTTGPDCGKCKKNYQGRPWSPGSYLPIPKGTANTCIPSISSIGTNVCDNELLHCQNGGTCHNNVRCLCPAAYTGILCEKLRCEEAGSCGS
notes: Used purified in the pull-down and as a crude preparation (1 ug/ml) for coating in the solid phase assay; also called NetrinG-his
B2: human NGL-1-Fc (extracellular domain of human NGL-1 fused to human IgG1 Fc) (Fc fusion)
chain: QTCPSVCSCSNQFSKVICVRKNLREVPDGISTNTRLLNLHENQIQIIKVNSFKHLRHLEILQLSRNHIRTIEIGAFNGLANLNTLELFDNRLTTIPNGAFVYLSKLKELWLRNNPIESIPSYAFNRIPSLRRLDLGELKRLSYISEGAFEGLSNLRYLNLAMCNLREIPNLTPLIKLDELDLSGNHLSAIRPGSFQGLMHLQKLWMIQSQIQVIERNAFDNLQSLVEINLAHNNLTLLPHDLFTPLHHLERIHLHHNPWNCNCDILWLSWWIKDMAPSNTACCARCNTPPNLKGRYIGELDQNYFTCYAPVIVEPPADLNVTEGMAAELKCRASTSLTSVSWITPNGTVMTHGAYKVRIAVLSDGTLNFTNVTVQDTGMYTCMVSNSVGNTTASATLNVTAATTTPFSYFSTVTVETMEPSQDEARTTDNNVGPTPVVDWETTNVTTSLTPQSTRSTEKTFTIPVTDINSGIPGIDEVMKTTK
notes: also called NGL-1-ECD IgG Fc fusion protein; PRO331 ECD-Fc; not shown: human IgG1 Fc region
B3: recombinant human cMet-Fc fusion protein (R&D Systems) (Fc fusion)
chain: ECKEALAKSEMNVNMKYQLPNFTAETPIQNVILHEHHIFLGATNYIYVLNEEDLQKVAEYKTGPVLEHPDCFPCQDCSSKANLSGGVWKDNINMALVVDTYYDDQLISCGSVNRGTCQRHVFPHNHTADIQSEVHCIFSPQIEEPSQCPDCVVSALGAKVLSSVKDRFINFFVGNTINSSYFPDHPLHSISVRRLKETKDGFMFLTDQSYIDVLPEFRDSYPIKYVHAFESNNFIYFLTVQRETLDAQTFHTRIIRFCSINSGLHSYMEMPLECILTEKRKKRSTKKEVFNILQAAYVSKPGAQLARQIGASLNDDILFGVFAQSKPDSAEPMDRSAMCAFPIKYVNDFFNKIVNKNNVRCLQHFYGPNHEHCFNRTLLRNSSGCEARRDEYRTEFTTALQRVDLFMGQFSEVLLTSISTFIKGDLTIANLGTSEGRFMQVVVSRSGPSTPHVNFLLDSHPVSPEVIVEHTLNQNGYTLVITGKKITKIPLNGLGCRHFQSCSQCLSAPPFVQCGWCHDKCVRSEECLSGTWTQQICLPAIYKVFPNSAPLEGGTRLTICGWDFGFRRNNKFDLKKTRVLLGNESCTLTLSESTMNTLKCTVGPAMNKHFNMSIIISNGHGTTQYSTFSYVDPVITSISPKYGPMAGGTLLTLTGNYLNSGNSRHISIGGKTCTLKSVSNSILECYTPAQTISTEFAVKLKIDLANRETSIFSYREDPIVYEIHPTKSFISGGSTITGVGKNLNSVSVPRMVINVHEAGRNFTVACQHRSNSEIICCTTPSLQQLNLQLPLKTKAFFMLDGILSKYFDLIYVHNPVFKPFEKPVMISMGNENVLEIKGNDIDPEAVKGEVLKVGNKSCENIHLHSEAVLCTVPNDLLKLNSELNIEWKQAISSTVLGKVIVQPDQNFT
notes: extracellular domain; Bought protein; the construct is not described; not shown: Fc part of the bought fusion protein, not described

Key:
[1] = molecular target: B3; assay: solution binding assay, protein A bead pull-down, blot probed with HisProbe
Experimental: (§1) Recombinant human NGL-1-Fc (a-c), human Netrin-G1-Fc (d-f) and human DCC-Fc (g-i) were used to label COS7 cells expressing human NGL-1 (a, d, g), human Netrin-G1 (b, e, h), chicken Netrin-1 (c, f, i). Specific binding of the transfected cells was evident for Netrin-G1-expressing cells labeled with NGL-1-Fc (b), for NGL-1-expressing cells labeled with Netrin-G 1-Fc (d), as well as for Netrin-1-expressing cells labeled with DCC-Fc (i). (j) The recombinant ECD-Fc fusion proteins (5 nM) indicated at the top (lanes 3-7) were incubated with human Netrin-G1-his (first row), chicken Netrin-1-his (second row) or human HGF protein (third row) in a solution binding assay. Complexes were pulled down by protein A-conjugated beads and probed with His-Probe (anti-His), antibodies to chicken netrin-1 and monoclonal antibodies to human HGF, as indicated. Direct and specific binding of NGL-1-Fc and netrin-G1-His (50 kDa) is shown in the first row. The netrin-1-His protein (75-85 kDa) binds strongly to DCC-Fc and Unc5-Fc (lanes 3 and 4, second row), extremely weakly to NGL-1-Fc (lane 5, second row), and not at all to human cMet-Fc (lane 6). HGF binds to cMet-Fc (lane 6, third row). Lane 1, directly loaded netrin-G1-His; lane 2, directly loaded netrin-1-His; lane 7, directly loaded HGF.
(§2) The question remained whether Netrin-G1 and NGL-1 directly interact with each other. […]

[2] = molecular target: B2; assay: solid phase binding assay, Netrin-G1-his coated wells, serial dilution of NGL-1-Fc, saturation curve and Scatchard analysis
Experimental: (§3) The binding affinity of NGL-1 and Netrin-G1 was then evaluated by a solid phase binding assay. Crude NetrinG-his protein (1 μg/ml) was coated in microtiter wells and non-specific binding sites saturated with 0.5% BSA. Purified NGL-1-Fc protein was serially diluted and added to the coated wells for 1 hour. Signals were detected with the biotinylated anti-human IgGFc antibody, horseradish peroxidase-conjugated strepavidin and a chromogenic substrate TMB (Kirkgaard and Perry Lab). The reactions were terminated with phosphoric acid and absorbance at 450 nm was measured. Non-specific binding was determined in parallel by omitting the microtiter well coating or by incubating the wells with the irrelevant cMet-Fc fusion protein, and dissociation constants were determined using saturation curves and Scatchard analysis (FIG. 2a). […] Cell 87, 175-185. (1996)].

[3] = molecular target: B1; assay: solid phase binding assay: Netrin-G1-his coated in microtiter wells, NGL-1-Fc in solution, OD450; specific binding = total minus cMet-Fc binding
Experimental: as §3

[4] = molecular target: T1, human NGL-1 expressed on COS7 cells (human, UniProt Q9HCJ2 43-640); assay: cell surface binding assay on transfected COS7 cells, fluorescence microscopy
T1 construct: also called PRO331; Netrin-G1 Ligand
T1 sequence: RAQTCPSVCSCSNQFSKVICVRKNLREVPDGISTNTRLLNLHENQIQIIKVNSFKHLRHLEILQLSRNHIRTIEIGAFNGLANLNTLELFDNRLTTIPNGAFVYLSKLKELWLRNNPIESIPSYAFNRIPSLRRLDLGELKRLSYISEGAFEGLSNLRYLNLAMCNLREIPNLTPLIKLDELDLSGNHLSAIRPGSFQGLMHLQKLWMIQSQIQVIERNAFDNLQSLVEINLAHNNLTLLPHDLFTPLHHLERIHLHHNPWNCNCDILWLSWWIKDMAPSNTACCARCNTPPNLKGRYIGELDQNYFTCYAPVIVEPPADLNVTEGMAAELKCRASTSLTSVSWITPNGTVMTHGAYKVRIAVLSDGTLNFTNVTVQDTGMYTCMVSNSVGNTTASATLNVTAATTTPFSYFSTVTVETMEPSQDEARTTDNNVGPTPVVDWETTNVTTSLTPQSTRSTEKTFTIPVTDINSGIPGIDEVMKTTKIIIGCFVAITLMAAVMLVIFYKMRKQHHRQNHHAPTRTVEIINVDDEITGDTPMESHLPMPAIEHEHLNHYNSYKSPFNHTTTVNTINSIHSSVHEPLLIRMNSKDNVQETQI
Experimental: (§4) The resultant fusion proteins were expressed and used in binding assays over a panel of ˜400 putative cell surface transmembrane or GPI-anchored cell surface human proteins that were transiently expressed in COS7 cells. Purified ECD-Fc fusion proteins (0.5 μg/ml) or the crude baculovirus lysates were added to transiently transfected COS7 cells for 1-2 hours at room temperature. After 3 rinses with cold phosphate buffered saline (PBS), the bound protein was cross-linked to the cell surface with 4% paraformaldehyde. The bound Fc fusion protein was detected by biotinylated anti-human IgGFc and R-phycoerythrin-conjugated streptavidin (Jackson Immunoresearch). Cell surface staining was visualized by fluorescent microscopy and images were taken with the Penguin 800CL digital camera system (Pixera).
(§5) Although the NGL-1 and Netrin-G1 interaction appeared to be specific within the context of the screen, the classical Netrins and their known receptors, DCC and Unc5, were not included in the screen. Thus whether NGL-1 also interacts with Netrin-1 and its receptors was determined. Using the same cell surface binding assay, NGL-1, Netrin-G1, or Netrin-1 were expressed in COS7 cells (rows in FIG. 1a-i) and their ability to bind the IgG Fe fusion protein of NGL-1, Netrin-G1, or DCC (columns in FIG. 1a-i) was determined. […]

[5] = molecular target: T2, DCC expressed on COS cells (human, UniProt P43146 26-1447); assay: cell surface binding assay on transfected COS7 cells, fluorescence microscopy (data not shown)
T2 construct: whole, on cells
T2 sequence (P43146 26-1447): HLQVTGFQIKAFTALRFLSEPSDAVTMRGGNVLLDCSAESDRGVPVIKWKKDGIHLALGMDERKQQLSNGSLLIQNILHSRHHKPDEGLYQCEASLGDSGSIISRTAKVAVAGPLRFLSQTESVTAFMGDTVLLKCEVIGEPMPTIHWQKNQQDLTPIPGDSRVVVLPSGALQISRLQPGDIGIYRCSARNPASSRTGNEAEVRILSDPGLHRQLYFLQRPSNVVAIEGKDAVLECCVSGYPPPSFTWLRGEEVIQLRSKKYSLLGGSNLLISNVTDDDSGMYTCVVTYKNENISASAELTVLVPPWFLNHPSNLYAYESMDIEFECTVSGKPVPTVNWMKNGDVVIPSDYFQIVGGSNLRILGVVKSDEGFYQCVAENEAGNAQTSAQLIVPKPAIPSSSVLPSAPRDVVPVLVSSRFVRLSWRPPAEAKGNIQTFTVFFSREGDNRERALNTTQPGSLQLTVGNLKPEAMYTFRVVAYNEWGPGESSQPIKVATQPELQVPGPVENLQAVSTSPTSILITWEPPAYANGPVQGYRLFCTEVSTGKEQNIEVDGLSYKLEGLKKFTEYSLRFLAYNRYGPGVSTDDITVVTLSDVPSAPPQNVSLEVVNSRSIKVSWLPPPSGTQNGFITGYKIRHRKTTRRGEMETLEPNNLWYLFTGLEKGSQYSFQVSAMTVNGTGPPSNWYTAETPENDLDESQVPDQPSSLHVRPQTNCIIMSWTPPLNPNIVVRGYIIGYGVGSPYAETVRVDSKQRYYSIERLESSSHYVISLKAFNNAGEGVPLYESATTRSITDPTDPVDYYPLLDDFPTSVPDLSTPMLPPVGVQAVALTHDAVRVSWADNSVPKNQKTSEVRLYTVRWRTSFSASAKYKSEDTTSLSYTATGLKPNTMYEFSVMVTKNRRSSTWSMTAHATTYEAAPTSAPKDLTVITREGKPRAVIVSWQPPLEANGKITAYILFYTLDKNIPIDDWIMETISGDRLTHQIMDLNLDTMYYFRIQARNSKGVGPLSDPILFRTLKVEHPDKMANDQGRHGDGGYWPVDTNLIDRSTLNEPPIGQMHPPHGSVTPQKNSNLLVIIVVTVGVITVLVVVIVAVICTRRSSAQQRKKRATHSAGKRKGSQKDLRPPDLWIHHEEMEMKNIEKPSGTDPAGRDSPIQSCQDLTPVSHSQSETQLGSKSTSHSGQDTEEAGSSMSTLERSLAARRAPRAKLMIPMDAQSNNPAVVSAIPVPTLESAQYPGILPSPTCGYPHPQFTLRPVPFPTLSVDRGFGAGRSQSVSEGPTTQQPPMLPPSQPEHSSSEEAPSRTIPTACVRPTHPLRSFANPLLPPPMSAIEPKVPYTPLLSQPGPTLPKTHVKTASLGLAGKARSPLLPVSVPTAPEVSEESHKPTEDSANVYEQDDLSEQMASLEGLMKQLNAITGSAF
Experimental: as §4, §5

human HGF protein = molecular target: T3, human HGF protein (human, UniProt P14210 32-728, limits assumed); assay: solution binding assay, pull-down with protein A beads, blot probed with anti-HGF (panel j)
T3 construct: also called hepatocyte growth factor
T3 sequence (P14210 32-728 limits assumed): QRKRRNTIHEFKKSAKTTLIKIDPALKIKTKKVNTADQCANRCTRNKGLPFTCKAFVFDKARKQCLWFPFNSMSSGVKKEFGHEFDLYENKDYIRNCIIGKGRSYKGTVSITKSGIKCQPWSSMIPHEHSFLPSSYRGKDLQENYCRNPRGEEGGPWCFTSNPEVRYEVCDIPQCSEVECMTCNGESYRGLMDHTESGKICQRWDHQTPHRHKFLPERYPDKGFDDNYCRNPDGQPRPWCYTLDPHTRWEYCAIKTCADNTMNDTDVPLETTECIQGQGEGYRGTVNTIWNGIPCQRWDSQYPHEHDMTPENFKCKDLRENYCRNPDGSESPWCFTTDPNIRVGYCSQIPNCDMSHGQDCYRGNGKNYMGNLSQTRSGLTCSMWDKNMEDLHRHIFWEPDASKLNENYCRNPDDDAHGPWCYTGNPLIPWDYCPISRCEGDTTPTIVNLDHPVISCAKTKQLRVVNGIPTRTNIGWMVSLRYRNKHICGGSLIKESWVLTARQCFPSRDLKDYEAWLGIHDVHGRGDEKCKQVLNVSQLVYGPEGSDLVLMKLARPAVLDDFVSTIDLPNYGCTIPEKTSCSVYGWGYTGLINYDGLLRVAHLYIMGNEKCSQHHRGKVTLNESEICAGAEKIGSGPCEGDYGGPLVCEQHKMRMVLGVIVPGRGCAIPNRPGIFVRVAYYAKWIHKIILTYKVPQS
Experimental: as §1, §2

[6] = molecular target: recombinant 6xHis-tagged chick Netrin-1 protein (R&D Systems) (chicken, UniProt Q90922 26-606); assay: solution binding assay, protein A bead pull-down, blot probed with anti-chicken Netrin-1
Experimental: as §1, §2

B1
binding result [1]: no binding | Kd [2]: 1.6 nM

B2
EC50 (read off the curve) [3]: ~2 nM | binding result [4]: no binding | binding result [5]: no binding | binding result (human HGF protein): no binding (tested: 5 nM)

B3
binding result [6]: no binding

Source: US20090156489A1 (Genentech, published 2009)
